Blank lines part the entries; values can stand above or below the molecule they belong to.
T1: GST-tagged ARS2^147–871 (human, UniProt Q9BXP5-4 147-871)
T1 construct: human ARS2 (SRRT) isoform-e, residues 147-871; The cloning of the GST fusion is not described; also called GST-ARS2; source: E. coli Rosetta 2 (said of all constructs but full-length NCBP3); held on glutathione sepharose
T1 sequence (looked up): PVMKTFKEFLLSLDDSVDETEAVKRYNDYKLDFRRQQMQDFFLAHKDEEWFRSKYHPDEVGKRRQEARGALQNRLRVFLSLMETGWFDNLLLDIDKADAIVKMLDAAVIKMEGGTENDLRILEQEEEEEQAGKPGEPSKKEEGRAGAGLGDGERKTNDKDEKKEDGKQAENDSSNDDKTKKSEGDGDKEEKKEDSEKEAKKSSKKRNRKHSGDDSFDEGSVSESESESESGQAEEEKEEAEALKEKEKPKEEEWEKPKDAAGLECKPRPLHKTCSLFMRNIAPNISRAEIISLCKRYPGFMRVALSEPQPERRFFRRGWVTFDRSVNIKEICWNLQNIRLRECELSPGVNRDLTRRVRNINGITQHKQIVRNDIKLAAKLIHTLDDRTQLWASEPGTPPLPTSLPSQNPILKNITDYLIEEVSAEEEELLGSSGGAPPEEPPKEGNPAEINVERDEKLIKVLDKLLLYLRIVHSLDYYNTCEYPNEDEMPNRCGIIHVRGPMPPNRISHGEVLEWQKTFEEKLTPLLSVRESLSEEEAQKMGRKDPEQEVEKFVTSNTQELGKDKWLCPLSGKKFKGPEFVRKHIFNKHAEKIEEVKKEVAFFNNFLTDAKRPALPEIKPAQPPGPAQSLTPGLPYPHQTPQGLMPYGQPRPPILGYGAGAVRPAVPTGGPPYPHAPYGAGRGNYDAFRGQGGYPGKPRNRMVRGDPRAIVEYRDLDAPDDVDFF

T2: ARS2^147–871 (human, UniProt Q9BXP5-4 147-871)
T2 construct: human ARS2 (SRRT) isoform-e, 871 residues, residues 147-871, cloned into pETM11; also called hARS2; SRRT; source: E. coli Rosetta 2, purified (Ni-Sepharose, TEV cleavage, HiTrap Q, heparin if necessary, SEC); not shown: His6, N-terminal, cleaved
T2 sequence (looked up): T1 sequence (looked up)

T3: ARS2^147–270+494–763 (human, UniProt Q9BXP5-4 147-270; Q9BXP5-4 494-763)
T3 construct: human ARS2 (SRRT) isoform-e, residues 147-270, cloned into pETM11; human ARS2 (SRRT) isoform-e, residues 494-763 (lacks the RRM domain), cloned for co-expression into pDUET and pET15b; Lacks the unstructured regions and the RRM domain; source: E. coli Rosetta 2, two fragments co-expressed, purified; not shown: His6, N-terminal, cleaved
T3 sequence (looked up) 1: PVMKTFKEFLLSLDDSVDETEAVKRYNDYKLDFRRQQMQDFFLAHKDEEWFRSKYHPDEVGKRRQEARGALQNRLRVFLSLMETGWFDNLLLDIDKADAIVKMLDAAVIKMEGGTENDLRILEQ
T3 sequence (looked up) 2: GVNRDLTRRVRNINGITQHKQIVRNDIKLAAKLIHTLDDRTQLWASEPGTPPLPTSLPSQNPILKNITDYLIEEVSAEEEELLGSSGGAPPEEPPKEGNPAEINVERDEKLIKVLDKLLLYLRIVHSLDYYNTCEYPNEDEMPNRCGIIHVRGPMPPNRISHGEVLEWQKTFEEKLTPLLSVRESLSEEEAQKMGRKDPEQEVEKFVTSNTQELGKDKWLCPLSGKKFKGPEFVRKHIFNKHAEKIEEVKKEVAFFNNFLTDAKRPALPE

B1: full-length NCBP3 (residues 1–620) (natural protein, human, UniProt Q53F19-1 1-620, looked up)
chain: MAAVRGLRVSVKAEAPAGPALGLPSPEAESGVDRGEPEPMEVEEGELEIVPVRRSLKELIPDTSRRYENKAGSFITGIDVTSKEAIEKKEQRAKRFHFRSEVNLAQRNVALDRDMMKKAIPKVRLETIYICGVDEMSTQDVFSYFKEYPPAHIEWLDDTSCNVVWLDEMTATRALINMSSLPAQDKIRSRDASEDKSAEKRKKDKQEDSSDDDEAEEGEVEDENSSDVELDTLSQVEEESLLRNDLRPANKLAKGNRLFMRFATKDDKKELGAARRSQYYMKYGNPNYGGMKGILSNSWKRRYHSRRIQRDVIKKRALIGDDVGLTSYKHRHSGLVNVPEEPIEEEEEEEEEEEEEEEEDQDMDADDRVVVEYHEELPALKQPRERSASRRSSASSSDSDEMDYDLELKMISTPSPKKSMKMTMYADEVESQLKNIRNSMRADSVSSSNIKNRIGNKLPPEKFADVRHLLDEKRQHSRPRPPVSSTKSDIRQRLGKRPHSPEKAFSSNPVVRREPSSDVHSRLGVPRQDSKGLYADTREKKSGNLWTRLGSAPKTKEKNTKKVDHRAPGAEEDDSELQRAWGALIKEKEQSRQKKSRLDNLPSLQIEVSRESSSGSEAES
notes: human NCBP3, full length, residues 1-620, cloned into pFASTBac HTb; also called NCBP3^1–620; source: High Five insect cells, purified; not shown: His6, N-terminal, cleaved
B2: FARB (FLASH–ARS2-binding region) peptide of FLASH, residues 931–943 (peptide)
peptide: DELEEGEIRSDSE
notes: FLASH (FLICE-associated huge protein), residues 931-943; also called FLASH^931–943; source: synthetic peptide, bought: GeneScript
B3: ARS2^171–270+408–763 (domain or fragment, human)
chain 1: RYNDYKLDFRRQQMQDFFLAHKDEEWFRSKYHPDEVGKRRQEARGALQNRLRVFLSLMETGWFDNLLLDIDKADAIVKMLDAAVIKMEGGTENDLRILEQ
chain 2: GLECKPRPLHKTCSLFMRNIAPNISRAEIISLCKRYPGFMRVALSEPQPERRFFRRGWVTFDRSVNIKEICWNLQNIRLRECELSPGVNRDLTRRVRNINGITQHKQIVRNDIKLAAKLIHTLDDRTQLWASEPGTPPLPTSLPSQNPILKNITDYLIEEVSAEEEELLGSSGGAPPEEPPKEGNPAEINVERDEKLIKVLDKLLLYLRIVHSLDYYNTCEYPNEDEMPNRCGIIHVRGPMPPNRISHGEVLEWQKTFEEKLTPLLSVRESLSEEEAQKMGRKDPEQEVEKFVTSNTQELGKDKWLCPLSGKKFKGPEFVRKHIFNKHAEKIEEVKKEVAFFNNFLTDAKRPALPE
notes: human ARS2 (SRRT) isoform-e, residues 171-270, cloned into pETM11; human ARS2 (SRRT) isoform-e, residues 408-763, cloned for co-expression into pDUET and pET15b; Two co-expressed fragments of one protein that fold into one core; also called crystallised core; source: E. coli Rosetta 2, two fragments co-expressed, purified; not shown: His6, N-terminal, cleaved
B4: ARS2^147–270+408–763ΔloopB (domain or fragment, human)
chain 1: T3 sequence (looked up) 1
chain 2: GLECKPRPLHKTCSLFMRNIAPNISRAEIISLCKRYPGFMRVALSEPQPERRFFRRGWVTFDRSVNIKEICWNLQNIRLRECELSPGVNRDLTRRVRNINGITQHKQIVRNDIKLAAKLIHTLDDRTQLWASEPGTPPLPTSLPSQNPILKNITDYLIEEGSGSGSERDEKLIKVLDKLLLYLRIVHSLDYYNTCEYPNEDEMPNRCGIIHVRGPMPPNRISHGEVLEWQKTFEEKLTPLLSVRESLSEEEAQKMGRKDPEQEVEKFVTSNTQELGKDKWLCPLSGKKFKGPEFVRKHIFNKHAEKIEEVKKEVAFFNNFLTDAKRPALPE
notes: human ARS2 (SRRT) isoform-e, residues 147-270; human ARS2 (SRRT) isoform-e, from 408 to E567, before the deleted loop B; linker that replaces loop B (568-598); human ARS2 (SRRT) isoform-e, from E599 to 763, after the deleted loop B; the crystallisation methods print ∆566–598GSGSGS; also called ARS2^147–270+408–763Δ568–598 (Δloop B); Human ARS2 147-270+408-763 Δloop B: Δ568–598 E567–GSGSGS–E599; …
B5: FLASH^921–946 peptide (peptide, UniProt Q9UKL3 921-946, looked up)
peptide: EADTCKNSPLDELEEGEIRSDSETSK
notes: FLASH (FLICE-associated huge protein), residues 921-946, holds FARB (931-943); source: synthetic peptide, bought: GeneScript
B6: NCBP3^1–282 (domain or fragment, human, UniProt Q53F19-1 1-282, looked up)
chain: MAAVRGLRVSVKAEAPAGPALGLPSPEAESGVDRGEPEPMEVEEGELEIVPVRRSLKELIPDTSRRYENKAGSFITGIDVTSKEAIEKKEQRAKRFHFRSEVNLAQRNVALDRDMMKKAIPKVRLETIYICGVDEMSTQDVFSYFKEYPPAHIEWLDDTSCNVVWLDEMTATRALINMSSLPAQDKIRSRDASEDKSAEKRKKDKQEDSSDDDEAEEGEVEDENSSDVELDTLSQVEEESLLRNDLRPANKLAKGNRLFMRFATKDDKKELGAARRSQYYMK
notes: cloned into pETM11; also called N-terminal region of NCBP3; source: E. coli Rosetta 2, purified; not shown: His6, N-terminal, cleaved

Assays:
PHAX (endogenous) = PHAX (endogenous) (UniProt Q9H814); test: EGFP pull down, LC–MS/MS (AP–MS, TMT labelled); details: HEK 293T/17 cells; three independent affinity purifications per bait, except ARS2 wt in b (one pull down); read off a plot
Sequence of PHAX (endogenous) (Q9H814 whole entry): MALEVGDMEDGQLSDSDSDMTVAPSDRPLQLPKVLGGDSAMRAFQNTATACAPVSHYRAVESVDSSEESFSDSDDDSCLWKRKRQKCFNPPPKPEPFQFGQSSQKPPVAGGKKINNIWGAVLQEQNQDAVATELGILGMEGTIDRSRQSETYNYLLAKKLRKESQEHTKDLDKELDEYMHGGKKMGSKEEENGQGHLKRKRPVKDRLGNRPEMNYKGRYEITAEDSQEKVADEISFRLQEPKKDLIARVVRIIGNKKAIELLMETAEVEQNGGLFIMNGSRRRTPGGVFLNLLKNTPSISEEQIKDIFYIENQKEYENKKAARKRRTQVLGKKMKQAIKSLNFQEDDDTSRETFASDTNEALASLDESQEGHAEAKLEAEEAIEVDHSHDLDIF

[1] = target: CBP20 (NCBP2) (endogenous) (UniProt P52298); test: EGFP pull down, LC–MS/MS (AP–MS, TMT labelled); details: HEK 293T/17 cells; three independent affinity purifications per bait, except ARS2 wt in b (one pull down); read off a plot
Sequence of CBP20 (NCBP2) (endogenous) (P52298 whole entry): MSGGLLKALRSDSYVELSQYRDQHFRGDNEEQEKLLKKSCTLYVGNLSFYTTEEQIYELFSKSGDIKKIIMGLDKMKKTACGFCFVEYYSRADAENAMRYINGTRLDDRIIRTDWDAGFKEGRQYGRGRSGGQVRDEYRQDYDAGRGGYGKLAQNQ

[2] = target: CBP80 (NCBP1) (endogenous) (UniProt Q09161); test: EGFP pull down, LC–MS/MS (AP–MS, TMT labelled); details: HEK 293T/17 cells; three independent affinity purifications per bait, except ARS2 wt in b (one pull down); read off a plot
Sequence of CBP80 (NCBP1) (endogenous) (Q09161 whole entry): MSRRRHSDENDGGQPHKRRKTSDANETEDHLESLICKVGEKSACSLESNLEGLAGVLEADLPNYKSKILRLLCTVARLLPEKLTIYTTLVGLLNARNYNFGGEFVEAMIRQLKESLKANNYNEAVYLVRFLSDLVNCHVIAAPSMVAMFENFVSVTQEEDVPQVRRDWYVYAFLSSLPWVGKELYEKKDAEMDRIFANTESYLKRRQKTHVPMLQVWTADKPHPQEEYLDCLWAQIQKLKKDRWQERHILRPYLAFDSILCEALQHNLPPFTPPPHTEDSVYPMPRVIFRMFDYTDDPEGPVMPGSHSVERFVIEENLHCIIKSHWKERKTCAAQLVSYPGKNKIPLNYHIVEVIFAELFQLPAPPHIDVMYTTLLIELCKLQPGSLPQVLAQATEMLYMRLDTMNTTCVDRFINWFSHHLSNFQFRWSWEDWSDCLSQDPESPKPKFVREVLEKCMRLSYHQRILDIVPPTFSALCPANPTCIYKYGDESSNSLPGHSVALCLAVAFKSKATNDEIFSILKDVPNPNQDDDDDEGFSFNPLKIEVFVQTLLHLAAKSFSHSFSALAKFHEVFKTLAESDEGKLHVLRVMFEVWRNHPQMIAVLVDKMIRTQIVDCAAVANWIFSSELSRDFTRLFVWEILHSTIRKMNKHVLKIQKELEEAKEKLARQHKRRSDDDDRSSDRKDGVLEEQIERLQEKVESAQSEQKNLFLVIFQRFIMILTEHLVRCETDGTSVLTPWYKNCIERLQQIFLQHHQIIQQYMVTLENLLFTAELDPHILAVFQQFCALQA

GST-tagged ARS2^147–871 = target: T1, GST-tagged ARS2^147–871; test: pull-down; GST-tagged ARS2 147–871 on glutathione sepharose, NCBP3 constructs added, in the absence of the cap analogue; details: both partners purified
ARS2^147–871 [3] = target: T2, ARS2^147–871; test: SEC; purified proteins mixed, Superdex 200, 120 mM NaCl, 1 mM TCEP, 20 mM HEPES pH 7.8; in the absence of m7GTP; fractions on SDS-PAGE; details: both partners purified
ARS2^147–270+494–763 = target: T3, ARS2^147–270+494–763; test: ITC; MicroCal ITC200, 25 °C, ARS2 construct with FARB; not marked high salt: 20 mM HEPES, 120 mM, 2 mM TCEP pH 7.8; single-site fit; details: both partners purified
ARS2^147–871 [4] = target: T2, ARS2^147–871; test: ITC; MicroCal ITC200, 25 °C, ARS2 constructs with FLASH peptides; high salt (HS): buffer containing 250 mM NaCl; single-site fit; which partner was injected is not told; details: both partners purified
ARS2^171–270+408–763 = target: B3; test: as above; details: both partners purified
[5] = target: B1; test: pull-down; purified recombinant NCBP3 constructs immobilised on m7GTP sepharose, incubated with CBP80 and/or wild type or mutant ARS2; eluted fractions on Coomassie-stained SDS-PAGE; details: both partners purified
ARS2^147–871 [6] = target: T2, ARS2^147–871; test: ITC; MicroCal ITC200, 25 °C, ARS2 constructs with NCBP3 1–282; buffer containing 250 mM NaCl; injections of 2.5 µL; details: both partners purified

other: log2 (fold change) (PHAX (endogenous)): -2.6
other: log2 (fold change) [1]: -3.9
other: log2 (fold change) [2]: -4
Molecule: EGFP–ARS2 wt (from UniProt Q9BXP5-4) R854A; R859A; F871A

Molecule: B1
binding result (GST-tagged ARS2^147–871): binds
binding result (ARS2^147–871 [3]): binds

Molecule: B2
Kd (ARS2^147–270+494–763): 0.5 µM
Kd (ARS2^147–871 [4]): 5.1 µM
Kd (ARS2^171–270+408–763): 3.8 µM

Molecule: B3
binding result [5]: binds

Molecule: B4
binding result [5]: binds

Molecule: B5
Kd (ARS2^147–871 [4]): 5.5 µM

Molecule: B6
binding result (ARS2^147–871 [6]): binds
binding result (GST-tagged ARS2^147–871): binds

From article PMC5923425, “Structural analysis of human ARS2 as a platform for co-transcriptional RNA sorting” (Nature Communications, 2018)
